Data taken from PMC3040281 (Biochemistry, 2011).

Tests used:
YghU = biological target: T1, YghU (Escherichia coli, UniProt Q46845); experiment: intrinsic protein fluorescence titration, single-site fit; format: binding
T1 sequence (Q46845 1-288): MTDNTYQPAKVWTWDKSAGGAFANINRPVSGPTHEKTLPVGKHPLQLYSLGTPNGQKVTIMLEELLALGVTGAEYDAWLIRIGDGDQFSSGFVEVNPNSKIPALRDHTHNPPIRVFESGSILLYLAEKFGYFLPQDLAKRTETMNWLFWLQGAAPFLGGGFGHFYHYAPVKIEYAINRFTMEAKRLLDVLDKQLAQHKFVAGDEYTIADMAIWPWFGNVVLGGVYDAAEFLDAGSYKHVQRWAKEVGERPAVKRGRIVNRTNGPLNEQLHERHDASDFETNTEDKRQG

purified protein [1] = substrate: CC(C)(OO)c1ccccc1; experiment: purified protein; format: biochemical, Escherichia coli; settings: GSH co-substrate, 100 mM KH2PO4, pH 7.0, 25 °C
purified protein [2] = substrate: CCCCC[C@@H](/C=C/C=C\CCCCCCCC(=O)O)OO; experiment: purified protein; format: biochemical, Escherichia coli; settings: GSH co-substrate, 100 mM KH2PO4, pH 7.0, 25 °C
purified protein [3] = substrate: CCCCC[C@@H](/C=C/C=C\C/C=C\C/C=C\CCCC(=O)O)OO; experiment: purified protein; format: biochemical, Escherichia coli; settings: 3 mM GSH, 100 mM KH2PO4, pH 7.0, 0.005% BSA, 25 °C
SEC = biological target: the molecule itself; experiment: SEC

Row | Molecule | Kd (YghU) | Km (purified protein [1]) | kcat (purified protein [1]) | kcat/Km (purified protein [1]) | Km (purified protein [2]) | kcat (purified protein [2]) | kcat/Km (purified protein [2]) | Km (purified protein [3]) | kcat (purified protein [3]) | kcat/Km (purified protein [3]) | stoichiometry N (SEC)
1 | NCCCCNCCCNC(=O)CNC(=O)[C@H](CS)NC(=O)CC[C@H](N)C(=O)O [GspSH] | 1 ± 0.1 mM | – | – | – | – | – | – | – | – | – | –
2 | YghU (enzyme, Escherichia coli K-12, UniProt Q46845 1-288, looked up) MTDNTYQPAKVWTWDKSAGGAFANINRPVSGPTHEKTLPVGKHPLQLYSLGTPNGQKVTIMLEELLALGVTGAEYDAWLIRIGDGDQFSSGFVEVNPNSKIPALRDHTHNPPIRVFESGSILLYLAEKFGYFLPQDLAKRTETMNWLFWLQGAAPFLGGGFGHFYHYAPVKIEYAINRFTMEAKRLLDVLDKQLAQHKFVAGDEYTIADMAIWPWFGNVVLGGVYDAAEFLDAGSYKHVQRWAKEVGERPAVKRGRIVNRTNGPLNEQLHERHDASDFETNTEDKRQG | – | 16 ± 2 µM | 0.05 ± 0.001 s⁻¹ | 3500 ± 400 M⁻¹ s⁻¹ | 130 ± 30 µM | 0.19 ± 0.02 s⁻¹ | 1500 ± 400 M⁻¹ s⁻¹ | 28 ± 4 µM | 0.096 ± 0.004 s⁻¹ | 3400 ± 1500 M⁻¹ s⁻¹ | 2
